Laboratory results as given in patent US20230408517A1 (BIO TECHNE, published 2023).
Like-named read-outs stand apart in the source and are kept apart here.

Columns and labels:
[1] = target: T1, recombinant monomeric SARS-CoV-2 S1 protein, his-tagged (SARS-CoV-2, UniProt P0DTC2 16-681); experiment: flow cytometry, blocking of binding to hACE-2 cells
T1 construct: domain: S1

[2] = target: T2, recombinant his-tagged homotrimeric SARS-CoV-2 spike protein (SARS-CoV-2, UniProt P0DTC2 16-1211); experiment: as above
[3] = target: T3, recombinant monomeric SARS-CoV-1 S1 protein (SARS-CoV-1, UniProt P59594 14-667); experiment: as above
[4] = target: T4, SARS-CoV spike RBD (R306-F527), C-terminal 6-His (SARS-CoV, UniProt P59594 306-527); experiment: as above
[5] = target: T1, recombinant monomeric SARS-CoV-2 S1 …; experiment: as above; remark: listed apart in the source
[6] = target: T2, recombinant his-tagged homotrimeric …; experiment: as above; remark: listed apart in the source
[7] = target: T3, recombinant monomeric SARS-CoV-1 S1 …; experiment: as above; remark: listed apart in the source
[8] = target: T4, SARS-CoV spike RBD (R306-F527), …; experiment: as above; remark: listed apart in the source
[9] = target: T3, recombinant monomeric SARS-CoV-1 S1 …; experiment: antigen-down ELISA, coated SARS-CoV-1 S1 titrated, Ab 1 µg/mL
[10] = target: T4, SARS-CoV spike RBD (R306-F527), …; experiment: antigen-down ELISA, coated SARS-CoV-1 S1 RBD titrated, Ab 1 µg/mL
[11] = target: T3, recombinant monomeric SARS-CoV-1 S1 …; experiment: antigen-down ELISA, coated SARS-CoV-1 S1 titrated, Ab 1 µg/mL; remark: listed apart in the source
[12] = target: T4, SARS-CoV spike RBD (R306-F527), …; experiment: antigen-down ELISA, coated SARS-CoV-1 S1 RBD titrated, Ab 1 µg/mL; remark: listed apart in the source
[13] = target: T3, recombinant monomeric SARS-CoV-1 S1 …; experiment: antigen-down ELISA, coated SARS-CoV-1 S1 titrated, Ab 1 µg/mL; remark: listed apart in the source
[14] = target: T4, SARS-CoV spike RBD (R306-F527), …; experiment: antigen-down ELISA, coated SARS-CoV-1 S1 RBD titrated, Ab 1 µg/mL; remark: listed apart in the source
[15] = target: T3, recombinant monomeric SARS-CoV-1 S1 …; experiment: antigen-down ELISA, coated SARS-CoV-1 S1 titrated, Ab 1 µg/mL; remark: listed apart in the source
[16] = target: T5, BSA (bovine, UniProt P02769); experiment: dipstick, adsorbed protein spots, Ab 10 µg/mL, GAM-AuNP
T5 construct: also called bovine serum albumin
T5 sequence (P02769 25-607 limits assumed): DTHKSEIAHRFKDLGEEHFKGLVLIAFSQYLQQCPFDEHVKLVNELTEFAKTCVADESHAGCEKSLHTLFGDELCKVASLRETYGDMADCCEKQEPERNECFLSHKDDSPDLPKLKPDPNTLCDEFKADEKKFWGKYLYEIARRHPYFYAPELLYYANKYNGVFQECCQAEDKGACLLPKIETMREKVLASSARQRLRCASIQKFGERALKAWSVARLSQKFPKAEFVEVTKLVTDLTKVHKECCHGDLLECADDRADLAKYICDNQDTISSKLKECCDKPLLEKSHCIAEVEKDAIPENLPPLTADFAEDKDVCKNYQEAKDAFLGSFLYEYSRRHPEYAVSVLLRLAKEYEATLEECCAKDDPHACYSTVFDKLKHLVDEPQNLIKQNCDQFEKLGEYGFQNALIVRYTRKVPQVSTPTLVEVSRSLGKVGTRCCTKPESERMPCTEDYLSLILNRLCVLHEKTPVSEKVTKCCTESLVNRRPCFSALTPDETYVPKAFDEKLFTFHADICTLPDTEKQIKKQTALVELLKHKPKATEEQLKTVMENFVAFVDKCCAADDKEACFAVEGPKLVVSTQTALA

[17] = target: T4, SARS-CoV spike RBD (R306-F527), …; experiment: antigen-down ELISA, coated SARS-CoV-1 S1 RBD titrated, Ab 1 µg/mL; remark: listed apart in the source
[18] = target: T3, recombinant monomeric SARS-CoV-1 S1 …; experiment: antigen-down ELISA, coated SARS-CoV-1 S1 titrated, Ab 1 µg/mL; remark: listed apart in the source
[19] = target: T4, SARS-CoV spike RBD (R306-F527), …; experiment: antigen-down ELISA, coated SARS-CoV-1 S1 RBD titrated, Ab 1 µg/mL; remark: listed apart in the source
[20] = target: T3, recombinant monomeric SARS-CoV-1 S1 …; experiment: antigen-down ELISA, coated SARS-CoV-1 S1 titrated, Ab 1 µg/mL; remark: listed apart in the source
[21] = target: T4, SARS-CoV spike RBD (R306-F527), …; experiment: antigen-down ELISA, coated SARS-CoV-1 S1 RBD titrated, Ab 1 µg/mL; remark: listed apart in the source
[22] = target: T4, SARS-CoV spike RBD (R306-F527), …; experiment: dipstick, adsorbed RBD spots, Ab 10 µg/mL, GAM-AuNP
[23] = target: T3, recombinant monomeric SARS-CoV-1 S1 …; experiment: antigen-down ELISA, coated SARS-CoV-1 S1 titrated, Ab 1 µg/mL; remark: listed apart in the source
[24] = target: T5, BSA; experiment: dipstick, adsorbed protein spots, Ab 10 µg/mL, GAM-AuNP; remark: listed apart in the source

| Binder | percent blocking [1] [%] | percent blocking [2] [%] | percent blocking [3] [%] | percent blocking [4] [%] | percent blocking [5] [%] | percent blocking [6] [%] | percent blocking [7] [%] | percent blocking [8] [%] | further results |
| --- | --- | --- | --- | --- | --- | --- | --- | --- | --- |
| 1035752 (antibody, V domains shown) VH: QVQLQQPGAELVRPGASVKMSCKASGYTFTSHSIHWVKQTPGQGLEWIGAVYPGNGDTSYYQKFKGKATLTADKSSSTAYMHLSSLTSEDSAVYYCARDGYSDYYAMDCWGQGTSVTVSS VL: DIVMTQSQKFMSTSVGDRVSVTCKASQNVGTNVAWYQQKPGQSPKALIYSASYRYSGVPDRFTGSGSGTDFTLTINNVQSEDLAEYFCQQYNRYPWTFGGGTKLEIK | 93.3 | 91.8 | 0 | 0 | 93.3 | 91.8 | 0 | 0 | binding result [9]: no binding (tested: 400 ng coated (axis)); binding result [10]: no binding (tested: 400 ng coated (axis)) |
| 1035423 (antibody, V domains shown) VH: EVKLEESGGGLVQPGGSMKLSCTASGFTFSDAWMDWVRQSPEKGLEWVAEIRNKANNHATYYAESVKGRFTISRDDSKSSVYLQMNSLRAEDTGIYYCILFITYAMDYWGQGTSVTVSS VL: DIVLTQSQKFMSTSVGDRVSITCKASQNVRTAVAWYQQKPGQSPKALIYLASNRHTGVPDRFTGSGSGTDFTLTISNVQSEDLADYFCLQHWNYPLTFGSGTKLELK | – | 91.6 | 0 | 0 | 19.7 | 91.6 | 0 | 0 | binding result [11]: no binding (tested: 400 ng coated (axis)); binding result [12]: no binding (tested: 400 ng coated (axis)) |
| 1035433 (antibody, V domains shown) VH: QVQLQQSGPQLVRPGASVKISCKASGYSFTIYWMHWVQQRPGQGLEWIGMIDPSDSETRLNQKFKDKATLTVDKSSSTAYMQLSSPTSEDSAVYYCARRGDYNFDYWGQGTTLTVSS VL: DIVMTQAAPSVPATPGESVSISCRSSKSLLHSNGNTYLYWFLQRPGQSPQLLIFRMSNLASGVPDRFSGSGSGTAFTLRISRVEAEDVGVYYCMQHLEYPYTFGGGTKLEIK | 9.3 | 82.5 | 0 | 0 | 9.3 | 82.5 | 0 | 0 | binding result [13]: no binding (tested: 400 ng coated (axis)); binding result [14]: no binding (tested: 400 ng coated (axis)) |
| 1035709 (antibody, V domains shown) VH: EVQLQQSGPELVKPGASVKISCKTSGYTFTEYTMHWVKQSHGKSLEWIGGINPNIVDTGYNQKFKGKATLTVDKSSSTAYMELRSLTSEDSAVYYCARDGYPLYYAMDYWGQGTSVTVSS VL: DIQMTQSPSSLSASLGERVSLTCRASQEISGYLSWLQQKPDGTIKRLIYAASTLDSGVPKRFSGSRSGSDYSLTISSLESEDFADYYCLQYASYPWTFGGGTKLEIK | 93.6 | 96.5 | 0 | 0 | 93.6 | 96.5 | 0 | 0 | binding result [15]: no binding (tested: 400 ng coated (axis)); binding result [16]: no binding (tested: 10 µg/mL); binding result [17]: no binding (tested: 400 ng coated (axis)) |
| 1035755 (antibody, V domains shown) VH: EVQLQQSGAELVRPGALVKLSCKASGFNIKDYYMHWVKQRPEQGLEWIGWIDPENGNSIYDPKFQGKASITADTSSNTAYLQLSSLTSEDTAVYYCATPSATSYFDYWGQGTTLTVSS VL: QIVLTQSPAIMSASPGEKVTISCSASSSVSYMYWYQQKPGSSPKPWIYRTSNLASGVPARFSGSGSGTSYSLTISSMEAEDAATYYCQQYHSYPYMYTFGGGTKLEIK | 93.3 | 84.6 | 1.3 | 0 | 93.3 | 84.6 | 1.3 | 0 | binding result [18]: no binding (tested: 400 ng coated (axis)); binding result [19]: no binding (tested: 400 ng coated (axis)) |
| 1035211 (antibody, V domains shown) VH: QVQLQQSGAELARPGASVKMSCKASGYTFTNYTMHWVKQRPGQGLEWIGYINPSSGYTNYNQKFKDKATLTADKSSSTAYMQLSSLTSEDSAVYYCARRNPLYAMDYWGQGTSVTVSS VL: DIKMTQSPSSMYASLGERVTITCKASQDINSYLNWFQQKPGKSPKTLIYRANRLVDGVPSRFSGSGSGQDYSLTISSLEFEDMGIYYCLQYDEFPYTFGGGTKLEIK | 88.7 | 78.6 | 0 | 0.1 | 88.7 | 78.6 | 0 | 0.1 | binding result [20]: no binding (tested: 400 ng coated (axis)); binding result [21]: no binding (tested: 400 ng coated (axis)) |
| 1035240 (antibody, V domains shown) VH: QVQLQQSGAELARPGASVKMSCKASGYTFTTYTMHWVKQRPGQGLEWIGYINPSSGYTNYNQKFKDKATLTADTSSSTAYMQLSSLTSEDSAVYYCARRNPLYAMDYWGQGTSVTVSS VL: DIKMTQSPSSMYASLGERVTITCKASQDINSYLNWFQQKPGKSPKTLIYRANRLVDGVPSRFSGSGSGQDYSLTISSLEYEDMGIYYCLQYDEFPYTFGGGTKLEIK | 56.5 | 96.1 | 0 | 0 | 56.5 | 96.1 | 0 | 0 | binding result [22]: no binding (tested: 10 µg/mL); binding result [23]: no binding (tested: 400 ng coated (axis)); binding result [24]: no binding (tested: 10 µg/mL) |
